Source: the supplement of paper PMC10567573

B1: IKZF1 (parent)
chain: YHSQDRYEFSSHITRGEHRFHMS

Variants of: B1
Assay: protein stability index of a GFP-peptide fusion (GPS, HEK-293T) (PSI 1-6); higher = more stable
Details: c terminus: native
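Further: lentivirally expressed fusions sorted by FACS into six bins by GFP to DsRed ratio, PSI derived from sequencing read proportions per bin multiplied by bin number.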

Row | Variant | protein stability index
1 | YHSVDRYEFSSHITRGEHRFHMS | 2.23
2 | YHSTDRYEFSSHITRGEHRFHMS | 1.63
3 | YHSCDRYEFSSHITRGEHRFHMS | 1.44
4 | YHSLDRYEFSSHITRGEHRFHMS | 2.08
5 | YHSWDRYEFSSHITRGEHRFHMS | 2.22
6 | YHSDDRYEFSSHITRGEHRFHMS | 2.75
7 | YHSMDRYEFSSHITRGEHRFHMS | 1.77
8 | YHSIDRYEFSSHITRGEHRFHMS | 1.57
9 | YHSHDRYEFSSHITRGEHRFHMS | 2.21
10 | YHSKDRYEFSSHITRGEHRFHMS | 2.21
11 | YHSQDRYEFSSHITRGEARFHMS | 1.45
12 | YHSQDRYEFSSHITRGESRFHMS | 1.83
13 | YHSQDRYEFSSHITRGEPRFHMS | 1.81
14 | YHSQDRYEFSSHITRGERRFHMS | 1.82
15 | YHSQDRYEFSSHITRGEKRFHMS | 2.22
16 | YHSQDRYEFSSHITRGEFRFHMS | 2.66
17 | YHSQDRYEFSSHITRGETRFHMS | 1.92
18 | YHSQDRYEFSSHITRGEIRFHMS | 1.65
19 | YHSQKRYEFSSHITRGEHRFHMS | 3.72
20 | YHSQLRYEFSSHITRGEHRFHMS | 2.17
21 | YHSQPRYEFSSHITRGEHRFHMS | 2.04
22 | YHSQERYEFSSHITRGEHRFHMS | 3
23 | YHSQYRYEFSSHITRGEHRFHMS | 2.05
24 | YHSQRRYEFSSHITRGEHRFHMS | 1.61
25 | YHSQFRYEFSSHITRGEHRFHMS | 2.55

Row | Variant | protein stability index
26 | YHSQDRDEFSSHITRGEHRFHMS | 2.26
27 | YHSQDRAEFSSHITRGEHRFHMS | 1.89
28 | YHSQDREEFSSHITRGEHRFHMS | 2.18
29 | YHSQDRVEFSSHITRGEHRFHMS | 2
30 | YHSQDRLEFSSHITRGEHRFHMS | 2.33
31 | YHSQDRNEFSSHITRGEHRFHMS | 1.72
32 | YHSQDRKEFSSHITRGEHRFHMS | 1.51
33 | YHSQDRPEFSSHITRGEHRFHMS | 1.78
34 | YHSQDRFEFSSHITRGEHRFHMS | 2.78
35 | YHSQDRREFSSHITRGEHRFHMS | 2.08
36 | YHSQDRCEFSSHITRGEHRFHMS | 1.91
37 | YHSQDRYEFSSHICRGEHRFHMS | 1.58
38 | YHSQDRYEFSSHISRGEHRFHMS | 1.85
39 | YHSQDRYEFSSHIVRGEHRFHMS | 2.04
40 | YHSQDRYEFSSHIWRGEHRFHMS | 2.7
41 | YHSQDRYEFSSHINRGEHRFHMS | 2.24
42 | YHSQDRYEFSSHIDRGEHRFHMS | 1.83
43 | YHSQDRYEFSSHITRGPHRFHMS | 2.04
44 | YHSQDRYEFSSHITRGTHRFHMS | 1.4
45 | YHSQDRYEFSSHITRGDHRFHMS | 1.63
46 | YHSQDRYEFSSHITRGLHRFHMS | 2.11
47 | YHSQDRYEFSSHITRGMHRFHMS | 1.71
48 | YHSQDRYEFSSHITRGYHRFHMS | 1.7
49 | YHSQDRYEFSSHITRGIHRFHMS | 2.84
50 | YHSQDRYEFSSHITRGFHRFHMS | 1.62

Row | Variant | protein stability index
51 | YHSQDRYEFSLHITRGEHRFHMS | 3.83
52 | YHSQDRYEFSGHITRGEHRFHMS | 2
53 | YHSQDRYEFSKHITRGEHRFHMS | 1.95
54 | YHSQDRYEFSRHITRGEHRFHMS | 2.33
55 | YHSQDRYEFSYHITRGEHRFHMS | 1.67
56 | YHSQDRYEFSHHITRGEHRFHMS | 1.61
57 | YHSQDRYEFSIHITRGEHRFHMS | 1.65
58 | YHSQDRYEFSFHITRGEHRFHMS | 2.9
59 | YHSQDRYEFSQHITRGEHRFHMS | 2.07
60 | YHSQDRYEFSSHITRGEHRSHMS | 2.05
61 | YHSQDRYEFSSHITRGEHRQHMS | 2.5
62 | YHSQDRYEFSSHITRGEHRAHMS | 2.15
63 | YHSQDRYEFSSHITRGEHRNHMS | 2.56
64 | YHSQDRYEFSSHITRGEHRTHMS | 1.75
65 | YHSQDRYEFSSHITRGEHRLHMS | 2.37
66 | YHSQDRYEFSSHITRGEHRIHMS | 3.73
67 | YHSQDRYEFSSHITRGEHRYHMS | 1.75
68 | YHSQDRYEFSSHITRGEHRMHMS | 1.83
69 | YHSQDRYEFSSHITRGEHRGHMS | 1.67
70 | YHSQDRYEFSSHITRGEHRWHMS | 2.93
71 | YWSQDRYEFSSHITRGEHRFHMS | 2.41
72 | YMSQDRYEFSSHITRGEHRFHMS | 2.48
73 | YSSQDRYEFSSHITRGEHRFHMS | 3.36
74 | YPSQDRYEFSSHITRGEHRFHMS | 3.48
75 | YCSQDRYEFSSHITRGEHRFHMS | 2.04

Row | Variant | protein stability index
76 | YNSQDRYEFSSHITRGEHRFHMS | 3.72
77 | YFSQDRYEFSSHITRGEHRFHMS | 2.51
78 | YESQDRYEFSSHITRGEHRFHMS | 3.98
79 | YYSQDRYEFSSHITRGEHRFHMS | 2.85
80 | YLSQDRYEFSSHITRGEHRFHMS | 2.02
81 | YVSQDRYEFSSHITRGEHRFHMS | 2.58
82 | YHSQDRYEFSSHITRDEHRFHMS | 2.52
83 | YHSQDRYEFSSHITRNEHRFHMS | 2.04
84 | YHSQDRYEFSSHITRMEHRFHMS | 2.85
85 | YHSQDRYEFSSHITRFEHRFHMS | 1.9
86 | YHSQDRYEFSSHITRVEHRFHMS | 1.35
87 | YHSQDRYEFSSHITRHEHRFHMS | 1.56
88 | YHSQDRYYFSSHITRGEHRFHMS | 3.85
89 | YHSQDRYAFSSHITRGEHRFHMS | 2.79
90 | YHSQDRYDFSSHITRGEHRFHMS | 2.45
91 | YHSQDRYIFSSHITRGEHRFHMS | 2.78
92 | YHSQDRYCFSSHITRGEHRFHMS | 2.5
93 | YHSQDRYWFSSHITRGEHRFHMS | 2.44
94 | YHSQDRYLFSSHITRGEHRFHMS | 4.01
95 | YHSQDRYMFSSHITRGEHRFHMS | 2.11
96 | YHSQDRYTFSSHITRGEHRFHMS | 3.44
97 | YHSQDRYELSSHITRGEHRFHMS | 1.96
